experiment: yeast display, Sf9 membrane polyspecificity reagent, FACS + sequencing; frameworks hold sequencing errors
Outline: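 Sorting gates, low and high (top ~1%), were placed on anti-HA fluorescence to track expression and on streptavidin fluorescence to track reagent binding. A clone's polyreactivity label is taken from the gate it came out of. The reagent was 10% biotinylated, detergent-solubilized Sf9 membrane, applied for 1 hour at 4 °C to galactose-induced yeast display cells.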

Sequence	polyreactivity (PSR sort gate)
QVHLVESGGGLVQAGGSLRLSCAASGFTFSSNAMGWYRQAPGKERELVADISFNSTSTYYADSVKGRFTISRDNAKNTVYLQMNSLKPEDTAVYYCAADVPRVQSEPEYDYWGQGTQVTVSS	low polyreactivity
QVHLVESGGGLVQAGGSLRLSCAASGFTFSYYAMGWYRQAPGKERELVAVISDRGGITYYADSVKGRFTISRDNAKNTVYLQMISLKPEDTAVYYCAAQNPRYNYRYYYWGQGTQVTVSS	low polyreactivity
QVHLVESGGGLVQAGGSLRLSCAASGFTITYNAMGWYRQAPGKEREFVAAITNNGSTYYADSVKGRFTISRDNAKNSVYLQMKSLKPEDTAVYYCAVDRGYYDEYNYWGQGTHVTVSS	low polyreactivity
QVHLVESGGGLVQAGGSLRLSCAASGGTINRYAMGWSRQAPGKERELVAAITYSGGRTYYADSVKGRFTISRDNAKNTVYLQMNSLKPEDTAVYYCAARVGKIISDSWGQGTQVTVSS	high polyreactivity
QVHLVESGGGLVQAGGSLRLSCAASGIIFGRNVMGWYRQAPGKERELVAAISSSGGRTYYADSVKGRFTISRDNAKNTVYLQMNSLNPEVTAVYYCAADEVTKKNSFPRIMDYWGQGTQVTVSS	high polyreactivity
QVHLVESGGGLVQAGGSLRLSCAASGIIFHYYAMGWYRQAPGKERALVATMTSGGSTYYADSVKGRFTISRDNAKNTVYLQMNSLKPEDSAVYYCAATYGGSVFEYDYWGQGTQVTVSS	low polyreactivity
QVHLVESGGGLVQAGGSLRLSCAASGIIFYWNPMGWYRQAPGKERELVAAISWSGGSTYYADSVKGRFTISRDNAKNTVYLQMNSLKPEDTAVYYCNAVTTYYPQFRPGAIPGVGYGFWGQGTQVTVSS	low polyreactivity
QVHLVESGGGLVQAGGSLRLSCAASGILRLNAMGWYRQAPGKEREFVATISRSGGITYYADSVKGRFTISRDNAKNTVYLQMNSLKPEDTAVYYCAKGGYSLYGYWGQGTQVTVSS	high polyreactivity
QVHLVESGGGLVQAGGSLRLSCAASGITFAWYAMGWYRQAPGKERELVAAISDRGGSTYYADSVKGRFTMSRDNAKNTVDLQMNSLKPEETAVYYCAADYRYYWRSGASSRMDYWGQGTQVTVSS	high polyreactivity
QVHLVESGGGLVQAGGSLRLSCAASGITFNIYTLGWYRQAPGKEREFVATISSSGGGTYYADSVKGRFTISRDNSKNTVYFQMNSLKPEDTAVYYCARYGIGADGYDYWGQGTQVTVSS	low polyreactivity
QVHLVESGGGLVQAGGSLRLSCAASGITFWGNAMGWYRHAPGKEREFVARINWSGGRTYYAESVKGRFTISRDNAKITVYLQMKSLKPEDTAVYYCAATSLIYGYRTYVYWGQGTQVTVSS	high polyreactivity
QVHLVESGGGLVQAGGSLRLSCAASGITFYGNTMGWYRQTPGKERELVARISSGGSTNYAESVKGRFTISRVNAKNTVYLQMNSLKPEDTAVSYCAVKQYGFIWSGYGYDYWGQGSQVTVSS	high polyreactivity
QVHLVESGGGLVQAGGSLRLSCAASGITFYRFVLGGYRQAPGKEWELDAAISRTGGYTYYADSVKGRFTLSRDNAKNTVYLQMNSLKPVDTAVYYCAAATSTGIYDYWGQGTQVTGSS	high polyreactivity
QVHLVESGGGLVQAGGSLRLSCAASGITIYVYAMGWYRQAPGKEREFVAAINGRGGSPYYADSVKGRFTISRDNAKNTVYLQMNSLKPEDTAVFYCAAESLAIYYKYPPYDYWGQGSQVTVSS	high polyreactivity
QVHLVESGGGLVQAGGSLRLSCAASGLIFFKYAMGWYRQETGKESELVAANSSSGGRTSYADSVKGRFTISRDNAKNTVYLQMNSEKPEDTAVYYCNVKPSASYIRYNYRYYYWGQGTHVTVSS	high polyreactivity
QVHLVESGGGLVQAGGSLRLSCAASGLIFGKNAMGWYRQPPGKERELVAAISSGESTYADSVKWRFTISRDNAKNTVYLQMNSLKPEDTAVYYCNAEVLRESYDRHPTTDYYWGQGTQVTVSS	low polyreactivity

Sequence	polyreactivity (PSR sort gate)
QVHLVESGGGLVQAGGSLRLSCAASGLIFVFYAMGWYRQAPGKERELVAAISRSGTSTYADSVKGRFTISRDNAKNTVYLQMNSLKPEDTAVYYCNAYRYYSPDGYWGQGTHVTVSS	low polyreactivity
QVHLVESGGGLVQAGGSLRLSCAASGLILPYYAMGWYRQARGKERELVAAISRTGGRTSYADSVKGRFTISRDNAKNTVYLQMNSLKPEDTAVYYCAAVGQSGGRRYDYWGQGTQVTVSS	high polyreactivity
QVHLVESGGGLVQAGGSLRLSCAASGLTFPSNAMGWYRQAPGKERELVAAISKRGGRTYYADSVKGRFTISRDNAKNSVYLQMNSLKPEDTAVYYFATPYAYPGTVQYAGYNYWGQGTQVTVSS	high polyreactivity
QVHLVESGGGLVQAGGSLRLSCAASGLTFYSNAMGWYRQAPGKERELVARISTGGSTYADSVKGRFTISRDNAKNTVYLQMNSLKPEDTAVYYCAKLPPRGIDDEYWGQGNQVTVSS	low polyreactivity
QVHLVESGGGLVQAGGSLRLSCAASGRIFAYYTMGWYRQAPGKERELVAAITSRGGSTYYADSVKGRFTISRDNAKKTVYLQMNSLKPEDTAVYYCADMRPSNVDYWGQGTQVTVSS	high polyreactivity
QVHLVESGGGLVQAGGSLRLSCAASGRIFKDNAMGWYRQAPGKERELVATIDSGGDTNYADSVKGRFTISRDNAKNTVYLQMNSLKPEDTAVYYCNTEGFLSAVYAFGYWGQGTQVTVSS	low polyreactivity
QVHLVESGGGLVQAGGSLRLSCAASGRIFNQYGMGWSRQAPGKERELVAAIRSGDSTNYADSVKGRFTISRDNAKNTVYLQMNSLKPEDTAVYYCARDRPGDYAGYDYWGQGTQVTVSS	low polyreactivity
QVHLVESGGGLVQAGGSLRLSCAASGRIFRFYAMGWYRQAPGKERELVADISRRGGSTYYADSVKGRFTISRDNAKNTVYLQMNSLKPEDTAVYYCNARWYRTGSTYHEDYWGQGTQVTVSS	high polyreactivity
QVHLVESGGGLVQAGGSLRLSCAASGRIFSRNAMGRYRQAPGKERELVAAISSDGNTNYADSVKGFTISRDNAKNTVYLQMNSLKPESTAVYYCAARFGYTAYGYWGQGTQVTVSS	low polyreactivity
QVHLVESGGGLVQAGGSLRLSCAASGRIFYYNAMGWYRQAPGKERELVAAISSAGSTYYADSVKGRFTLSRDNAKNTVYLQMNSLKPEDTAVYYCNAGKHERMDWGQGTQVTVSS	high polyreactivity
QVHLVESGGGLVQAGGSLRLSCAASGRIFYYYAMGWYRQAPGKEREFVAAIRISGGSTNYADSVKGRFTISRDNAKNTVYLQMNSLKPEDTAVYYCAARSKYSGIRRAYDYWGQGTQVTVSS	high polyreactivity
QVHLVESGGGLVQAGGSLRLSCAASGRISFNAMGWYRQAHAKERELVAAISRRGGSTYYADSVKGRFTISRDNAKNTVSLQMNSLKPEDTAVYYCAPDIIRPVTVDYWGQGTQVTVSS	high polyreactivity
QVHLVESGGGLVQAGGSLRLSCAASGRIYRVNGMGWYRQAPGTERELVAAIRRSGGSTYYADSVKGRFTISRDIAKNTVYLQMNSLKPEDTAVYYCAARVRQSSYTRYDSWGQGTQVTVSS	high polyreactivity
QVHLVESGGGLVQAGGSLRLSCAASGRPFYIYAMGWYRPAPGKERELVAAITWSGGTTYYADSVKGRFTISRDTANNTVYLQMNSQKPQDTAVYYCNASFRRGFDYWGQGTQVTVSS	low polyreactivity
QVHLVESGGGLVQAGGSLRLSCAASGRTFFRYAMGWYTQAPGKERELVAAITRSGGSTYYADSVKGRFTISRDNAKNTVYLEMNSLKPEDTAVYYCAAPREAYSRGYDSWGQGTQVTVSS	high polyreactivity
QVHLVESGGGLVQAGGSLRLSCAASGRTFNRTAMGSYRQAPGKERELVAAMSWRGDSTSYADSVKGRFTISRDNAKNTVYLQMNSLKPADTAVYYCATAHDYAFYRYWYVPSEYYYWGQGTQVTVSW	low polyreactivity
